This is an account of results in patent publication US8680241B2 (priority 2009, dated 2014).

The test deals with peptide-6 (SEQ ID NO. 15) (Mycobacterium tuberculosis, UniProt P9WPE7).

B1: VH2/VK3: humanized anti-peptide-6 IgG1; heavy chain variable region SEQ ID NO: 21, light chain variable region SEQ ID NO: 26 (antibody, V domains shown)
VH: QVTLKESGPALVKPTQTLTLTCSFSGFSLSTSNMGVGWIRQPAGKGLEWLLHILWNDSKYYNPALKSRLTISKDTYKNQVVLTMTNMDPVDTATYYCARMGGYYGNYGYYAMDYWGQGTLVTVSS
VL: QIVLTQSPATLSLSPGERATLSCTASSSVSSSYLHWYQQKPGKAPKLWIYSTSNLASGVPSRFSGSGSGTDYTLTISSLQPEDFATYYCHQYHRSPPTFGQGTKLEIK
modifications: IgG1 constant regions; VH2 amino acid sequence; VK3 amino acid sequence
On to B1, for which the “binding to peptide-6 directly compared to VH2/VK2 on the same plate” value is on record as “marginally the best binding”.
